Data reported in the supplement of paper PMC9732359.
± gives the uncertainty stated by the source.

Experiment: protein stability index of a GFP-peptide fusion (yeast GPS) (PSI 1-4); higher = more stable; sorted into four equal gates, so the index is relative within each strain
Summary of the method: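 Mid-log yeast cultures in leucine-free medium, carrying a pooled plasmid library, were sorted into four equal gates by their GFP/Cherry fluorescence ratio. Each plasmid expressed Cherry along with GFP fused upstream of a tiled 17-residue yeast protein peptide. Plasmids recovered from each gate were PCR-amplified and Illumina-sequenced, with reads assigned to strains by barcodes. The protein stability index was obtained by summing each gate's read frequency weighted by its gate number.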

Row | Sequence | protein stability index (doa10∆) | protein stability index (pdr5∆) | protein stability index (san1∆) | protein stability index (ubr1∆)
1 | LLGIFDDIFIPQNMLFE [RPC25] | 2.33 ± 0.15 | 2.7 ± 0.17 | 2.52 ± 0.095 | 2.69 ± 0.1
2 | RDHKSYSQSPPRSPGRS [SMC4] | 2.59 ± 0.092 | 2.98 ± 0.081 | 3.01 ± 0.17 | 2.87 ± 0.052
3 | TPAMIPYPGSPMHSIMP [DSN1] | 2.8 ± 0.037 | 2.67 ± 0.034 | 2.88 ± 0.036 | 2.846 ± 0.025
4 | SFELKEEDISDLWNNFG [RRP6] | 2.85 ± 0.1 | 3.1 ± 0.12 | 2.47 ± 0.091 | 3.26 ± 0.073
5 | KEVSSFLMGIFNSVVNL [MTR3] | 2.83 ± 0.057 | 2.91 ± 0.049 | 2.88 ± 0.056 | 3 ± 0.043
6 | VNGRTKSNTIPVTSIPS [GAL11] | 2.9 ± 0.072 | 2.87 ± 0.11 | 2.99 ± 0.077 | 2.95 ± 0.079
7 | LDIPNVSLVVNFQISKK [PRP28] | 2.32 ± 0.067 | 2.51 ± 0.077 | 2.35 ± 0.087 | 2.71 ± 0.069
8 | FQALDSEETQFKYVEDR [ITC1] | 2.88 ± 0.097 | 3.44 ± 0.12 | 3.06 ± 0.069 | 3.45 ± 0.14
9 | QRRCLHCGALNGVVKKA [RPO31] | 2.35 ± 0.13 | 2.54 ± 0.13 | 2.41 ± 0.12 | 2.59 ± 0.11
10 | VLKKPNRAMEYDALLSI [RET1] | – | 2.33 ± 0.19 | 1.69 ± 0.28 | –
11 | KSPEQCILRFLQLPIED [SWI3] | 1.81 ± 0.067 | 2.3 ± 0.062 | 1.76 ± 0.12 | 1.41 ± 0.038
12 | DGRSFDQFRDVEITFGK [RRP45] | 3.27 ± 0.092 | 3.3 ± 0.058 | 3.54 ± 0.077 | 3.21 ± 0.057
13 | TSMTGDANLLEEGETSR [SWI3] | 3.2 ± 0.092 | 3.35 ± 0.097 | 3.2 ± 0.037 | 3.3 ± 0.041
14 | ILEESLNAIILKLEKLN [SMC3] | 1.66 ± 0.061 | 1.72 ± 0.062 | 1.5 ± 0.14 | 2.24 ± 0.07
15 | DEVDAIGGRRFSEGTSA [RPT4] | 2.72 ± 0.086 | 2.67 ± 0.083 | 2.48 ± 0.1 | 2.35 ± 0.09
16 | KGPIIISKNPSNGIFYG [SIR2] | 2.74 ± 0.067 | 2.5 ± 0.061 | 1.92 ± 0.083 | 2.3 ± 0.053
17 | SENQRQIFCVFSGKGVH [GRR1] | 2.94 ± 0.073 | 2.5 ± 0.065 | 2.62 ± 0.053 | 2.76 ± 0.046
18 | LSFVDIVLSKAASALDE [SIR4] | 1.84 ± 0.11 | 2.8 ± 0.071 | 2.59 ± 0.14 | 2.21 ± 0.054
19 | NPMKKHKPNEGRTPNIS [SIR4] | 2.88 ± 0.068 | 2.86 ± 0.055 | 2.88 ± 0.052 | 2.97 ± 0.036
20 | VNYRHFKAMEDVIAWKN [ITC1] | 2.98 ± 0.15 | 3.36 ± 0.17 | 3.27 ± 0.077 | 3.37 ± 0.065
21 | GTPEATKGMITNLQRNV [NUT2] | 2.95 ± 0.15 | 2.85 ± 0.12 | 2.94 ± 0.15 | 3.09 ± 0.19
22 | DANGVSLFELIVPIFQL [YJL039C/NUP192] | 2.37 ± 0.053 | 2.08 ± 0.049 | 2.25 ± 0.062 | 2.14 ± 0.032
23 | QLQQQPQMQCALQNLSQ [YGL172W/NUP49] | 2.19 ± 0.12 | 2.06 ± 0.09 | 2.42 ± 0.11 | 2.18 ± 0.077
24 | SLEMVPKDTSAATMTSA [RGR1] | 2.47 ± 0.11 | 2.77 ± 0.12 | 2.73 ± 0.088 | 2.93 ± 0.088
25 | KKINRRNETSVDEEDEN [YCG1] | 3.41 ± 0.1 | 3.38 ± 0.098 | 2.79 ± 0.14 | 3.31 ± 0.12
26 | KDHLLGRLASTIAKQVL [RPL16B] | 1.66 ± 0.085 | 1.57 ± 0.092 | 1.25 ± 0.14 | 1.3 ± 0.066
